Experimental data from patent US20210246166A1 (Bayer, published 2021).
Numbered stars: 1 amine (or outer) side, 2 acyl side, 3 side chain; on linkers, the order of the positions; unused ones are H or OH. Bridge positions count the residues as written; N and C are the ends. Square brackets hold non-standard residues; d marks the D form. Ends that are not written are not given here. X13 = (2S)‑2‑amino‑3‑(1-methylcyclopropyl)propanoic acid, CC1(C[C@H](N[*:1])C(=O)[*:2])CC1; Oic = O=C(O)[C@@H]1C[C@@H]2CCCC[C@@H]2N1; tBuAla = CC(C)(C)C[C@H](N)C(=O)O; Chg = N[C@H](C(=O)O)C1CCCCC1; Pen = CC(C)(S)[C@H](N)C(=O)O; 3Amb = NCc1cccc(C(=O)O)c1; NMeC = CN[C@@H](CS)C(=O)O; Nva = CCC[C@H](N)C(=O)O; Dap = NC[C@H](N)C(=O)O; PEG2 = NCCOCCOCCC(=O)O; Sar = CNCC(=O)O

T1: Recombinant human MASP1 enzyme (fragment corresponding to amino acids 297-699, C-terminal His Tag) (human, UniProt P48740 297-699)
T1 sequence: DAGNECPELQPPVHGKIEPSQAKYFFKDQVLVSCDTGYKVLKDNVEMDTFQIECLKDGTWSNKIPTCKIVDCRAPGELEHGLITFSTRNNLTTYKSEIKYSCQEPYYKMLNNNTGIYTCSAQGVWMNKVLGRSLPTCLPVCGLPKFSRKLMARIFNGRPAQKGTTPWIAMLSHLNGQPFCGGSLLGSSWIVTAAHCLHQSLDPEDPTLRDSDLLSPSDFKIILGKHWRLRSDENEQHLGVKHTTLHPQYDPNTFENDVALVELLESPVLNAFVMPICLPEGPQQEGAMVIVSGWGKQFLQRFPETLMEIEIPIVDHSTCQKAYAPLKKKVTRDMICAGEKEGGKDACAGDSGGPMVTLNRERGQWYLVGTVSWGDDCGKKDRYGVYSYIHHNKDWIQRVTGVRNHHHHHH

B1: ((N-Me)G)-IC+SRSLP-(Oic)-I-(Pen)+IPE-NH2 (peptide)
peptide: [Sar]ICSRSLP[Oic]I[Pen]IPE-NH2
modifications: disulfide 3-11; N-terminus assumed
SMILES: CC[C@H](C)[C@H](NC(=O)CNC)C(=O)N[C@H]1CSSC(C)(C)[C@@H](C(=O)N[C@H](C(=O)N2CCC[C@H]2C(=O)N[C@@H](CCC(=O)O)C(N)=O)[C@@H](C)CC)NC(=O)[C@H]([C@@H](C)CC)NC(=O)[C@@H]2C[C@@H]3CCCC[C@@H]3N2C(=O)[C@@H]2CCCN2C(=O)[C@H](CC(C)C)NC(=O)[C@H](CO)NC(=O)[C@H](CCCNC(=N)N)NC(=O)[C@H](CO)NC1=O
B2: aIC+SRSLP-(Oic)-I-(Pen)+IPE-NH2 (peptide)
peptide: [dA]ICSRSLP[Oic]I[Pen]IPE-NH2
modifications: disulfide 3-11; N-terminus assumed
SMILES: CC[C@H](C)[C@H](NC(=O)[C@@H](C)N)C(=O)N[C@H]1CSSC(C)(C)[C@@H](C(=O)N[C@H](C(=O)N2CCC[C@H]2C(=O)N[C@@H](CCC(=O)O)C(N)=O)[C@@H](C)CC)NC(=O)[C@H]([C@@H](C)CC)NC(=O)[C@@H]2C[C@@H]3CCCC[C@@H]3N2C(=O)[C@@H]2CCCN2C(=O)[C@H](CC(C)C)NC(=O)[C@H](CO)NC(=O)[C@H](CCCNC(=N)N)NC(=O)[C@H](CO)NC1=O
B3: (Dap)-IC+SRS-((tBu)A)-PPI-(Pen)+I-NH2 (peptide)
peptide: [Dap]ICSRS[tBuAla]PPI[Pen]I-NH2
modifications: disulfide 3-11; N-terminus assumed
SMILES: CC[C@H](C)[C@H](NC(=O)[C@H]1NC(=O)[C@H]([C@@H](C)CC)NC(=O)[C@@H]2CCCN2C(=O)[C@@H]2CCCN2C(=O)[C@H](CC(C)(C)C)NC(=O)[C@H](CO)NC(=O)[C@H](CCCNC(=N)N)NC(=O)[C@H](CO)NC(=O)[C@@H](NC(=O)[C@@H](NC(=O)[C@@H](N)CN)[C@@H](C)CC)CSSC1(C)C)C(N)=O
B4: ((N-Me)G)-IC+SRSLP-(Oic)-I-(Pen)+IPE-OH (peptide)
peptide: [Sar]ICSRSLP[Oic]I[Pen]IPE-OH
modifications: disulfide 3-11; N-terminus assumed
SMILES: CC[C@H](C)[C@H](NC(=O)CNC)C(=O)N[C@H]1CSSC(C)(C)[C@@H](C(=O)N[C@H](C(=O)N2CCC[C@H]2C(=O)N[C@@H](CCC(=O)O)C(=O)O)[C@@H](C)CC)NC(=O)[C@H]([C@@H](C)CC)NC(=O)[C@@H]2C[C@@H]3CCCC[C@@H]3N2C(=O)[C@@H]2CCCN2C(=O)[C@H](CC(C)C)NC(=O)[C@H](CO)NC(=O)[C@H](CCCNC(=N)N)NC(=O)[C@H](CO)NC1=O
B5: ((N-Me)G)-IC+SRS-((2S)-2-amino-3-(1-methylcyclopropyl)propanoic acid)-PPI-(Pen)+IP-NH2 (peptide)
peptide: [Sar]ICSRS[X13]PPI[Pen]IP-NH2
modifications: disulfide 3-11; N-terminus assumed
SMILES: CC[C@H](C)[C@H](NC(=O)CNC)C(=O)N[C@H]1CSSC(C)(C)[C@@H](C(=O)N[C@H](C(=O)N2CCC[C@H]2C(N)=O)[C@@H](C)CC)NC(=O)[C@H]([C@@H](C)CC)NC(=O)[C@@H]2CCCN2C(=O)[C@@H]2CCCN2C(=O)[C@H](CC2(C)CC2)NC(=O)[C@H](CO)NC(=O)[C@H](CCCNC(=N)N)NC(=O)[C@H](CO)NC1=O
B6: AIC+SRS-((tBu)A)-P-(Oic)-I-((N-Me)C)+I-NH2 (peptide)
peptide: AICSRS[tBuAla]P[Oic]I[NMeC]I-NH2
modifications: disulfide 3-11; N-terminus assumed
SMILES: CC[C@H](C)[C@H](NC(=O)[C@@H]1CSSC[C@H](NC(=O)[C@@H](NC(=O)[C@H](C)N)[C@@H](C)CC)C(=O)N[C@@H](CO)C(=O)N[C@@H](CCCNC(=N)N)C(=O)N[C@@H](CO)C(=O)N[C@@H](CC(C)(C)C)C(=O)N2CCC[C@H]2C(=O)N2[C@@H](C[C@@H]3CCCC[C@@H]32)C(=O)N[C@@H]([C@@H](C)CC)C(=O)N1C)C(N)=O
B7: A-(Nva)-C+SRS-((tBu)A)-PPI-(Pen)+IPD-NH2 (peptide)
peptide: A[Nva]CSRS[tBuAla]PPI[Pen]IPD-NH2
modifications: disulfide 3-11; N-terminus assumed
SMILES: CCC[C@H](NC(=O)[C@H](C)N)C(=O)N[C@H]1CSSC(C)(C)[C@@H](C(=O)N[C@H](C(=O)N2CCC[C@H]2C(=O)N[C@@H](CC(=O)O)C(N)=O)[C@@H](C)CC)NC(=O)[C@H]([C@@H](C)CC)NC(=O)[C@@H]2CCCN2C(=O)[C@@H]2CCCN2C(=O)[C@H](CC(C)(C)C)NC(=O)[C@H](CO)NC(=O)[C@H](CCCNC(=N)N)NC(=O)[C@H](CO)NC1=O
B8: ((N-Me)G)-IC+SRSLP-(Oic)-I-(Pen)+IPQ-NH2 (peptide)
peptide: [Sar]ICSRSLP[Oic]I[Pen]IPQ-NH2
modifications: disulfide 3-11; N-terminus assumed
SMILES: CC[C@H](C)[C@H](NC(=O)CNC)C(=O)N[C@H]1CSSC(C)(C)[C@@H](C(=O)N[C@H](C(=O)N2CCC[C@H]2C(=O)N[C@@H](CCC(N)=O)C(N)=O)[C@@H](C)CC)NC(=O)[C@H]([C@@H](C)CC)NC(=O)[C@@H]2C[C@@H]3CCCC[C@@H]3N2C(=O)[C@@H]2CCCN2C(=O)[C@H](CC(C)C)NC(=O)[C@H](CO)NC(=O)[C@H](CCCNC(=N)N)NC(=O)[C@H](CO)NC1=O
B9: aIC+SRSLP-(Oic)-I-(Pen)+IPE-OH (peptide)
peptide: [dA]ICSRSLP[Oic]I[Pen]IPE-OH
modifications: disulfide 3-11; N-terminus assumed
SMILES: CC[C@H](C)[C@H](NC(=O)[C@@H](C)N)C(=O)N[C@H]1CSSC(C)(C)[C@@H](C(=O)N[C@H](C(=O)N2CCC[C@H]2C(=O)N[C@@H](CCC(=O)O)C(=O)O)[C@@H](C)CC)NC(=O)[C@H]([C@@H](C)CC)NC(=O)[C@@H]2C[C@@H]3CCCC[C@@H]3N2C(=O)[C@@H]2CCCN2C(=O)[C@H](CC(C)C)NC(=O)[C@H](CO)NC(=O)[C@H](CCCNC(=N)N)NC(=O)[C@H](CO)NC1=O
B10: aIC+SRSLP-(Oic)-I-(Pen)+IPQ-NH2 (peptide)
peptide: [dA]ICSRSLP[Oic]I[Pen]IPQ-NH2
modifications: disulfide 3-11; N-terminus assumed
SMILES: CC[C@H](C)[C@H](NC(=O)[C@@H](C)N)C(=O)N[C@H]1CSSC(C)(C)[C@@H](C(=O)N[C@H](C(=O)N2CCC[C@H]2C(=O)N[C@@H](CCC(N)=O)C(N)=O)[C@@H](C)CC)NC(=O)[C@H]([C@@H](C)CC)NC(=O)[C@@H]2C[C@@H]3CCCC[C@@H]3N2C(=O)[C@@H]2CCCN2C(=O)[C@H](CC(C)C)NC(=O)[C@H](CO)NC(=O)[C@H](CCCNC(=N)N)NC(=O)[C@H](CO)NC1=O
B11: ((N-Me)G)-IC+SRSLP-(Oic)-I-(Pen)+IPQ-OH (peptide)
peptide: [Sar]ICSRSLP[Oic]I[Pen]IPQ-OH
modifications: disulfide 3-11; N-terminus assumed
SMILES: CC[C@H](C)[C@H](NC(=O)CNC)C(=O)N[C@H]1CSSC(C)(C)[C@@H](C(=O)N[C@H](C(=O)N2CCC[C@H]2C(=O)N[C@@H](CCC(N)=O)C(=O)O)[C@@H](C)CC)NC(=O)[C@H]([C@@H](C)CC)NC(=O)[C@@H]2C[C@@H]3CCCC[C@@H]3N2C(=O)[C@@H]2CCCN2C(=O)[C@H](CC(C)C)NC(=O)[C@H](CO)NC(=O)[C@H](CCCNC(=N)N)NC(=O)[C@H](CO)NC1=O
B12: (3-(Aminomethyl)benzoic acid)-IC+SRS-((tBu)A)-PPI-(Pen)+IP-NH2 (peptide)
peptide: [3Amb]ICSRS[tBuAla]PPI[Pen]IP-NH2
modifications: disulfide 3-11; N-terminus assumed
SMILES: CC[C@H](C)[C@H](NC(=O)c1cccc(CN)c1)C(=O)N[C@H]1CSSC(C)(C)[C@@H](C(=O)N[C@H](C(=O)N2CCC[C@H]2C(N)=O)[C@@H](C)CC)NC(=O)[C@H]([C@@H](C)CC)NC(=O)[C@@H]2CCCN2C(=O)[C@@H]2CCCN2C(=O)[C@H](CC(C)(C)C)NC(=O)[C@H](CO)NC(=O)[C@H](CCCNC(=N)N)NC(=O)[C@H](CO)NC1=O
B13: AIC+SRSLPP-(Chg)-(Pen)+IPD-NH2 (peptide)
peptide: AICSRSLPP[Chg][Pen]IPD-NH2
modifications: disulfide 3-11; N-terminus assumed
SMILES: CC[C@H](C)[C@H](NC(=O)[C@H](C)N)C(=O)N[C@H]1CSSC(C)(C)[C@@H](C(=O)N[C@H](C(=O)N2CCC[C@H]2C(=O)N[C@@H](CC(=O)O)C(N)=O)[C@@H](C)CC)NC(=O)[C@H](C2CCCCC2)NC(=O)[C@@H]2CCCN2C(=O)[C@@H]2CCCN2C(=O)[C@H](CC(C)C)NC(=O)[C@H](CO)NC(=O)[C@H](CCCNC(=N)N)NC(=O)[C@H](CO)NC1=O
B14: ((N-Me)G)-IC+SRS-((tBu)A)-PPI-(Pen)+IP-(PEG1(10 atoms))-NH2 (peptide)
peptide: [Sar]ICSRS[tBuAla]PPI[Pen]IP[PEG2]-NH2
modifications: disulfide 3-11; N-terminus assumed
SMILES: CC[C@H](C)[C@H](NC(=O)CNC)C(=O)N[C@H]1CSSC(C)(C)[C@@H](C(=O)N[C@H](C(=O)N2CCC[C@H]2C(=O)NCCOCCOCCC(N)=O)[C@@H](C)CC)NC(=O)[C@H]([C@@H](C)CC)NC(=O)[C@@H]2CCCN2C(=O)[C@@H]2CCCN2C(=O)[C@H](CC(C)(C)C)NC(=O)[C@H](CO)NC(=O)[C@H](CCCNC(=N)N)NC(=O)[C@H](CO)NC1=O

Biological target: T1, Recombinant human MASP1 enzyme …
Assay: cell-based or functional assay

B1 and B2 are the same in “human MASP1 IC50” value: 5 nM for the first, 5 nM for the second.

[Sar]ICSRSLP[Oic]I[Pen]I[5‑Azaspiro(2.4)heptane‑1‑carboxylic acid]-OH (disulfide 3-11) [((N-Me)G)-IC+SRSLP-(Oic)-I-(Pen)+I-((5-Azaspiro[2.4]heptane-1-carboxylic acid)-OH] and B3 are the same in “human MASP1 IC50” value: 5.1 nM for the first, 5.1 nM for the second.

B4 and B5 are the same in “human MASP1 IC50” value: 5.1 nM for the first, 5.1 nM for the second.

B6 and B7 are the same in “human MASP1 IC50” value: 5.2 nM for the first, 5.2 nM for the second.

B8 and B9 are within 1.5-fold of each other in “human MASP1 IC50” value: 5.2 nM for the first, 5.3 nM for the second.

B10 and B11 are within 1.5-fold of each other in “human MASP1 IC50” value: 5.3 nM for the first, 5.4 nM for the second.

B12 and B13 are within 1.5-fold of each other in “human MASP1 IC50” value: 5.4 nM for the first, 5.7 nM for the second.

In the case of B14, the “human MASP1 IC50” value is reported as 5.7 nM.

Biological target: Recombinant human MASP2 enzyme (fragment corresponding to amino acids 297-686, C-terminal His Tag) (human, UniProt O00187 297-686)
Sequence (O00187 other isoform, or with tags, fused parts or gaps limits assumed): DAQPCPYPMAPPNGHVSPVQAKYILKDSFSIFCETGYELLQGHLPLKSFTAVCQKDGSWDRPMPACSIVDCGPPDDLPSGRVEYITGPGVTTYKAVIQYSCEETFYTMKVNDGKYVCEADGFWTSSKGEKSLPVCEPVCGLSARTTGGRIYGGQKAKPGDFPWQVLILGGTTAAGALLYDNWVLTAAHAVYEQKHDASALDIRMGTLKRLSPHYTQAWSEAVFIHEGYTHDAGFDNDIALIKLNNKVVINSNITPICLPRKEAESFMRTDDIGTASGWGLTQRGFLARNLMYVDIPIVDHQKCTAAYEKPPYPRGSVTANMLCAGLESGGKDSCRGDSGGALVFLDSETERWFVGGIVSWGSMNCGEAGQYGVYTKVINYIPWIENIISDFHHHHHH
Assay: cell-based or functional assay

B1 and B2 are within 1.5-fold of each other in “human MASP2 IC50” value: 200 nM for the first, 150 nM for the second.

[Sar]ICSRSLP[Oic]I[Pen]I[5‑Azaspiro(2.4)heptane‑1‑carboxylic acid]-OH (disulfide 3-11) [((N-Me)G)-IC+SRSLP-(Oic)-I-(Pen)+I-((5-Azaspiro[2.4]heptane-1-carboxylic acid)-OH] and B3 are within 1.5-fold of each other in “human MASP2 IC50” value: 100 nM for the first, 81 nM for the second.

Going from B4 to B5, the “human MASP2 IC50” value falls from 180 nM to 17 nM (11-fold).

Going from B6 to B7, the “human MASP2 IC50” value falls from 250 nM to 19 nM (13-fold).

First: B8
Second: B9
The “human MASP2 IC50” value of the first is 1.9-fold higher: 190 nM for the first, 100 nM for the second.

B10 and B11 are within 1.5-fold of each other in “human MASP2 IC50” value: 130 nM for the first, 170 nM for the second.

Going from B12 to B13, the “human MASP2 IC50” value rises from 16 nM to 44 nM (2.8-fold).

B14 was tested, and the “human MASP2 IC50” value was 74 nM.
